From patent publication US20260242735A1 (UNIVERSIT T BASEL, published 2026)

Columns and labels:
human CD33 Y49D = human CD33 Y49D (human, UniProt P20138 18-364); experiment: flow cytometry on transfected cells, IgG
Method: (§1) An alanine scan on human CD33 was performed to the determine the residues on CD33 that are involved in binding to the antibodies investigated. […] Briefly, a mutation library of CD33 was created by high-throughput, site-directed mutagenesis. Each residue was individually mutated to alanine, with alanine codons mutated to serine. The mutant library was arrayed in 384-well microplates and transiently transfected into HEK293-T. Following transfection, cells were incubated with the indicated antibodies (IgG or Fab) at concentrations pre-determined using an independent immunofluorescence titration curve on wild type CD33. […] Binding of each antibody to each mutant clone was determined in duplicates. For each point, background fluorescence was subtracted from the raw data, which were then normalized to antibody reactivity with wild type CD33.
(§2) Antibodies were screened for binding to the human CD33 variants in IgG format. […] For each mutation, background fluorescence was subtracted from the raw data, which were then normalized to antibody reactivity with wild-type CD33.

human CD33 Y49C = human CD33 Y49C (human, UniProt P20138 18-364); experiment: flow cytometry on transfected cells, IgG
Method: as §1, §2

human CD33 F44D = human CD33 F44D (human, UniProt P20138 18-364); experiment: flow cytometry on transfected cells, IgG
Method: as §1, §2

human CD33 P48T = human CD33 P48T (human, UniProt P20138 18-364); experiment: flow cytometry on transfected cells, IgG
Method: as §1, §2

human CD33 I47Y = human CD33 I47Y (human, UniProt P20138 18-364); experiment: flow cytometry on transfected cells, IgG
Method: as §1, §2

human CD33 Y50N = human CD33 Y50N (human, UniProt P20138 18-364); experiment: flow cytometry on transfected cells, IgG
Method: as §1, §2

human CD33 P48L = human CD33 P48L (human, UniProt P20138 18-364); experiment: flow cytometry on transfected cells, IgG
Method: as §1, §2

human CD33 T42K = human CD33 T42K (human, UniProt P20138 18-364); experiment: flow cytometry on transfected cells, IgG
Method: as §1, §2

human CD33 P48Q = human CD33 P48Q (human, UniProt P20138 18-364); experiment: flow cytometry on transfected cells, IgG
Method: as §1, §2

human CD33 I47N = human CD33 I47N (human, UniProt P20138 18-364); experiment: flow cytometry on transfected cells, IgG
Method: as §1, §2

human CD33 Y50H = human CD33 Y50H (human, UniProt P20138 18-364); experiment: flow cytometry on transfected cells, IgG
Method: as §1, §2

human CD33 T42P = human CD33 T42P (human, UniProt P20138 18-364); experiment: flow cytometry on transfected cells, IgG
Method: as §1, §2

human CD33 I47L = human CD33 I47L (human, UniProt P20138 18-364); experiment: flow cytometry on transfected cells, IgG
Method: as §1, §2

human CD33 P132S = human CD33 P132S (human, UniProt P20138 18-364); experiment: flow cytometry, transfected cells, IgG;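 note: CD33 point mutants transiently expressed in HEK293-T cells, antibody binding read by fluorescence, background subtracted and normalized to wild-type CD33 as 100%, duplicates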
Method: as §1, §2

human CD33 L134I = human CD33 L134I (human, UniProt P20138 18-364); experiment: flow cytometry, transfected cells, IgG;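 note: CD33 point mutants transiently expressed in HEK293-T cells, antibody binding read by fluorescence, background subtracted and normalized to wild-type CD33 as 100%, duplicates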
Method: as §1, §2

human CD33 K52E = human CD33 K52E (human, UniProt P20138 18-364); experiment: flow cytometry, transfected cells, IgG;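 note: CD33 point mutants transiently expressed in HEK293-T cells, antibody binding read by fluorescence, background subtracted and normalized to wild-type CD33 as 100%, duplicates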
Method: as §1, §2

human CD33 L134M = human CD33 L134M (human, UniProt P20138 18-364); experiment: flow cytometry, transfected cells, IgG;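 note: CD33 point mutants transiently expressed in HEK293-T cells, antibody binding read by fluorescence, background subtracted and normalized to wild-type CD33 as 100%, duplicates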
Method: as §1, §2

human CD33 S131Y = human CD33 S131Y (human, UniProt P20138 18-364); experiment: flow cytometry, transfected cells, IgG
Method: as §1, §2

human CD33 L134T = human CD33 L134T (human, UniProt P20138 18-364); experiment: flow cytometry, transfected cells, IgG
Method: as §1, §2

human CD33 P132V = human CD33 P132V (human, UniProt P20138 18-364); experiment: flow cytometry, transfected cells, IgG
Method: as §1, §2

human CD33 K52T = human CD33 K52T (human, UniProt P20138 18-364); experiment: flow cytometry, transfected cells, IgG
Method: as §1, §2

human CD33 M120V = human CD33 M120V (human, UniProt P20138 18-364); experiment: flow cytometry, transfected cells, IgG
Method: as §1, §2

human CD33 P132L = human CD33 P132L (human, UniProt P20138 18-364); experiment: flow cytometry, transfected cells, IgG
Method: as §1, §2

human CD33 S131N = human CD33 S131N (human, UniProt P20138 18-364); experiment: flow cytometry, transfected cells, IgG
Method: as §1, §2

human CD33 D51Y = human CD33 D51Y (human, UniProt P20138 18-364); experiment: flow cytometry, transfected cells, IgG
Method: as §1, §2

human CD33 K52D = human CD33 K52D (human, UniProt P20138 18-364); experiment: flow cytometry, transfected cells, IgG
Method: as §1, §2

human CD33 S131I = human CD33 S131I (human, UniProt P20138 18-364); experiment: flow cytometry, transfected cells, IgG
Method: as §1, §2

human CD33 Y127R = human CD33 Y127R (human, UniProt P20138 18-364); experiment: flow cytometry, transfected cells, IgG
Method: as §1, §2

human CD33 P132N = human CD33 P132N (human, UniProt P20138 18-364); experiment: flow cytometry, transfected cells, IgG
Method: as §1, §2

human CD33 M120L = human CD33 M120L (human, UniProt P20138 18-364); experiment: flow cytometry, transfected cells, IgG
Method: as §1, §2

human CD33 Y129S = human CD33 Y129S (human, UniProt P20138 18-364); experiment: flow cytometry, transfected cells, IgG
Method: as §1, §2

human CD33 P132F = human CD33 P132F (human, UniProt P20138 18-364); experiment: flow cytometry, transfected cells, IgG
Method: as §1, §2

human CD33 V56R = human CD33 V56R (human, UniProt P20138 18-364); experiment: flow cytometry, transfected cells, IgG
Method: as §1, §2

human CD33 S131W = human CD33 S131W (human, UniProt P20138 18-364); experiment: flow cytometry, transfected cells, IgG
Method: as §1, §2

human CD33 R122F = human CD33 R122F (human, UniProt P20138 18-364); experiment: flow cytometry, transfected cells, IgG
Method: as §1, §2

human CD33 D51K = human CD33 D51K (human, UniProt P20138 18-364); experiment: flow cytometry, transfected cells, IgG
Method: as §1, §2

human CD33 R122S = human CD33 R122S (human, UniProt P20138 18-364); experiment: flow cytometry, transfected cells, IgG
Method: as §1, §2

human CD33 R122T = human CD33 R122T (human, UniProt P20138 18-364); experiment: flow cytometry, transfected cells, IgG
Chain of human CD33 R122T (P20138 18-364 R122T limits assumed): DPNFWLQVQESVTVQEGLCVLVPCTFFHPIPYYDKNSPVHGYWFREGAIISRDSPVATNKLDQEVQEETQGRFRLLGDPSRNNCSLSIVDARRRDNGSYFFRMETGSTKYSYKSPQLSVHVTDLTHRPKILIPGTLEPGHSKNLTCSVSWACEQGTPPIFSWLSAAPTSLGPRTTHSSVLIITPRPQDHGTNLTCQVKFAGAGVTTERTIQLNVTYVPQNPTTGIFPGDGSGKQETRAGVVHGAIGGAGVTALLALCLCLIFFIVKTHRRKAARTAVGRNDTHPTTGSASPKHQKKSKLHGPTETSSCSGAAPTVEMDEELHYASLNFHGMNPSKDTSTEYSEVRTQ
Method: as §1, §2

Chain of human CD33 T42K (P20138 18-364 T42K limits assumed): as the sequence (P20138 18-364 R122T limits assumed) above, with T25K, T105R counted along it
Chain of human CD33 P132N (P20138 18-364 P132N limits assumed): as the sequence (P20138 18-364 R122T limits assumed) above, with T105R, P115N counted along it
Chain of human CD33 D51Y (P20138 18-364 D51Y limits assumed): as the sequence (P20138 18-364 R122T limits assumed) above, with D34Y, T105R counted along it
Chain of human CD33 S131Y (P20138 18-364 S131Y limits assumed): as the sequence (P20138 18-364 R122T limits assumed) above, with T105R, S114Y counted along it
Chain of human CD33 P48T (P20138 18-364 P48T limits assumed): as the sequence (P20138 18-364 R122T limits assumed) above, with P31T, T105R counted along it
Chain of human CD33 Y127R (P20138 18-364 Y127R limits assumed): as the sequence (P20138 18-364 R122T limits assumed) above, with T105R, Y110R counted along it
Chain of human CD33 S131N (P20138 18-364 S131N limits assumed): as the sequence (P20138 18-364 R122T limits assumed) above, with T105R, S114N counted along it
Chain of human CD33 D51K (P20138 18-364 D51K limits assumed): as the sequence (P20138 18-364 R122T limits assumed) above, with D34K, T105R counted along it
Chain of human CD33 P132F (P20138 18-364 P132F limits assumed): as the sequence (P20138 18-364 R122T limits assumed) above, with T105R, P115F counted along it
Chain of human CD33 S131W (P20138 18-364 S131W limits assumed): as the sequence (P20138 18-364 R122T limits assumed) above, with T105R, S114W counted along it
Chain of human CD33 L134T (P20138 18-364 L134T limits assumed): as the sequence (P20138 18-364 R122T limits assumed) above, with T105R, L117T counted along it
Chain of human CD33 Y50N (P20138 18-364 Y50N limits assumed): as the sequence (P20138 18-364 R122T limits assumed) above, with Y33N, T105R counted along it
Chain of human CD33 K52E (P20138 18-364 K52E limits assumed): as the sequence (P20138 18-364 R122T limits assumed) above, with K35E, T105R counted along it

Mean % WT Binding (human CD33 Y49D) [% WT binding] | Mean % WT Binding (human CD33 Y49C) [% WT binding] | Mean % WT Binding (human CD33 F44D) [% WT binding] | Mean % WT Binding (human CD33 P48T) [% WT binding] | Mean % WT Binding (human CD33 I47Y) [% WT binding] | Mean % WT Binding (human CD33 Y50N) [% WT binding] | Mean % WT Binding (human CD33 P48L) [% WT binding] | Mean % WT Binding (human CD33 T42K) [% WT binding] | Mean % WT Binding (human CD33 P48Q) [% WT binding] | Mean % WT Binding (human CD33 I47N) [% WT binding] | Mean % WT Binding (human CD33 Y50H) [% WT binding] | Mean % WT Binding (human CD33 T42P) [% WT binding] | Mean % WT Binding (human CD33 I47L) [% WT binding] | Mean % WT Binding (human CD33 P132S) [%] | Mean % WT Binding (human CD33 L134I) [%] | Mean % WT Binding (human CD33 K52E) [%] | Mean % WT Binding (human CD33 L134M) [%] | Mean % WT Binding (human CD33 S131Y) [%] | Mean % WT Binding (human CD33 L134T) [%] | Mean % WT Binding (human CD33 P132V) [%] | Binder | also measured
1.7 | 0.7 | 111 | 91.4 | 94.5 | 3.2 | 18.9 | 79.5 | 2.1 | 88 | 7.1 | 13.9 | 107 | – | – | – | – | – | – | – | Refmab #5 (antibody, human IgG1, V domains shown) VH: QVQLVQSGAEVKKPGASVKVSCKASGYTFTNYDINWVRQAPGQGLEWIGWIYPGDGSTKYNEKFKAKATLTADTSTSTAYMELRSLRSDDTAVYYCASGYEDAMDYWGQGTTVTVSS VL: DIQMTQSPSSLSASVGDRVTINCKASQDINSYLSWFQQKPGKAPKTLIYRANRLVDGVPSRFSGSGSGQDYTLTISSLQPEDFATYYCLQYDEFPLTFGGGTKVEIK [Refmab #5, listing 1 of 2 here] | –
– | – | – | – | – | – | – | – | – | – | – | – | – | 105 | 92.9 | 13.8 | 86.1 | 89.5 | 96.5 | 86.9 | Refmab #5 (antibody, human IgG1, V domains shown) VH: QVQLVQSGAEVKKPGASVKVSCKASGYTFTNYDINWVRQAPGQGLEWIGWIYPGDGSTKYNEKFKAKATLTADTSTSTAYMELRSLRSDDTAVYYCASGYEDAMDYWGQGTTVTVSS VL: DIQMTQSPSSLSASVGDRVTINCKASQDINSYLSWFQQKPGKAPKTLIYRANRLVDGVPSRFSGSGSGQDYTLTISSLQPEDFATYYCLQYDEFPLTFGGGTKVEIK [Refmab #5, listing 2 of 2 here] | Mean % WT Binding (human CD33 K52T): 5%; Mean % WT Binding (human CD33 M120V): 85.9%; Mean % WT Binding (human CD33 P132L): 89.6%; Mean % WT Binding (human CD33 S131N): 101%; Mean % WT Binding (human CD33 D51Y): 57.1%; Mean % WT Binding (human CD33 K52D): 3.2%; Mean % WT Binding (human CD33 S131I): 84.8%; Mean % WT Binding (human CD33 Y127R): 108%; Mean % WT Binding (human CD33 P132N): 101%; Mean % WT Binding (human CD33 M120L): 103%; Mean % WT Binding (human CD33 Y129S): 94.7%; Mean % WT Binding (human CD33 P132F): 68.5%; Mean % WT Binding (human CD33 V56R): 87.4%; Mean % WT Binding (human CD33 S131W): 94.5%; Mean % WT Binding (human CD33 R122F): 90.1%; Mean % WT Binding (human CD33 D51K): 4.2%; Mean % WT Binding (human CD33 R122S): 90.6%; Mean % WT Binding (human CD33 R122T): 83.2%
117 | 44.7 | 107 | 92.6 | 105 | 108 | 104 | 91.2 | 111 | 96.6 | 92.2 | 9.3 | 99.1 | – | – | – | – | – | – | – | Refmab #6 (antibody, human IgG1, V domains shown) VH: QVQLQQPGAEVVKPGASVKMSCKASGYTFTSYYIHWIKQTPGQGLEWVGVIYPGNDDISYNQKFQGKATLTADKSSTTAYMQLSSLTSEDSAVYYCAREVRLRYFDVWGQGTTVTVSS VL: EIVLTQSPGSLAVSPGERVTMSCKSSQSVFFSSSQKNYLAWYQQIPGQSPRLLIYWASTRESGVPDRFTGSGSGTDFTLTISSVQPEDLAIYYCHQYLSSRTFGQGTKLEIK [Refmab #6, listing 1 of 2 here] | –
– | – | – | – | – | – | – | – | – | – | – | – | – | 3.2 | 89.4 | 121 | 99.5 | 24.5 | 88.4 | 84.6 | Refmab #6 (antibody, human IgG1, V domains shown) VH: QVQLQQPGAEVVKPGASVKMSCKASGYTFTSYYIHWIKQTPGQGLEWVGVIYPGNDDISYNQKFQGKATLTADKSSTTAYMQLSSLTSEDSAVYYCAREVRLRYFDVWGQGTTVTVSS VL: EIVLTQSPGSLAVSPGERVTMSCKSSQSVFFSSSQKNYLAWYQQIPGQSPRLLIYWASTRESGVPDRFTGSGSGTDFTLTISSVQPEDLAIYYCHQYLSSRTFGQGTKLEIK [Refmab #6, listing 2 of 2 here] | Mean % WT Binding (human CD33 K52T): 106%; Mean % WT Binding (human CD33 M120V): 97%; Mean % WT Binding (human CD33 P132L): 6.1%; Mean % WT Binding (human CD33 S131N): 84.6%; Mean % WT Binding (human CD33 D51Y): 71.3%; Mean % WT Binding (human CD33 K52D): 126%; Mean % WT Binding (human CD33 S131I): 24%; Mean % WT Binding (human CD33 Y127R): 108%; Mean % WT Binding (human CD33 P132N): 2.2%; Mean % WT Binding (human CD33 M120L): 101%; Mean % WT Binding (human CD33 Y129S): 99.6%; Mean % WT Binding (human CD33 P132F): 1.6%; Mean % WT Binding (human CD33 V56R): 93.2%; Mean % WT Binding (human CD33 S131W): 1.1%; Mean % WT Binding (human CD33 R122F): 92.5%; Mean % WT Binding (human CD33 D51K): 77.7%; Mean % WT Binding (human CD33 R122S): 108%; Mean % WT Binding (human CD33 R122T): 114%
